Columns and labels:
[1] = molecular target: β/A4 (1-28) with three amino acid substitutions of the putative heparin binding domain (histidine, histidine and lysine changed to glycine) (UniProt P05067); assay: affinity column chromatography of 125I-HSPG, mutated versus normal β/A4 (1-28) column
[2] = molecular target: beta-amyloid protein (BAP) residues 1-28, synthetic peptide (Homo sapiens (Human)) (UniProt P05067); assay: competition with 125I-HSPG for binding to the BAP (1-28) affinity column
[3] = molecular target: beta-amyloid protein (BAP) residues 1-28, synthetic peptide (Homo sapiens (Human)) (UniProt P05067); assay: BAP (1-28) affinity column, no unlabeled competing ligand
[4] = molecular target: beta-amyloid protein (BAP) residues 1-28, synthetic peptide (Homo sapiens (Human)) (UniProt P05067); assay: BAP (1-28) affinity column after heparitinase/heparinase digestion

beta-amyloid protein (BAP) residues 1-28, synthetic peptide (Homo sapiens (Human)), sequence (P05067 672-699 limits assumed): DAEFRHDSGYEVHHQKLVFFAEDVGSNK

“high Mr heparan sulfate proteoglycan (HSPG) isolated from the culture media of bovine aortic endothelial cells (from UniProt A0AAA9TDR0 23-4401)” was tested, and the percent decrease in binding against normal β/A4 (1-28) [1] was 50 to 60%.
In the case of “low density heparan sulfate proteoglycan isolated from the mouse Engelbreth-Holm-Swarm (EHS) sarcoma (perlecan), Q05793 22-3707”, the IC50 [2] is reported as < 1 µM.
“high Mr heparan sulfate proteoglycan (HSPG) isolated from the culture media of bovine aortic endothelial cells, A0AAA9TDR0 23-4401” gave a percent bound [3] of 21.6%.
“heparitinase/heparinase-digested 125I-labeled HSPG, A0AAA9TDR0 23-4401” gave a percent still able to bind in comparison to undigested controls [4] of 61%.

Source: patent US6340783
